Data on eight molecules can be found in patent US7105166 (Bristol-Myers Squibb, dated 2006).

Sequences and labels used below:
B1: CTLA4/CD28Ig hybrid fusion protein HS4-A (Fc fusion, not shown: a dimerising Fc or GST)
chain: NKILVKQSPMLVAYDNAYNLSCKYSYNLFSREFRASLHKGLDSAVEVCVVYGNYSQQLQVYSKTGFNCDGKLGNESVTFYLQNLYVNQTDIYFCKIELMYPPPYYLGIGNGTQIHVKGKHLCPS
notes: mature numbering, not counted on the entries
B2: CD7 expressed on transfected COS cells (receptor, UniProt P09564 26-240, looked up)
chain: AQEVQQSPHCTTVPVGASVNITCSTSGGLRGIYLRQLGPQPQDIIYYEDGVVPTTDRRFRGRIDFSGSQDNLTITMHRLQLSDTGTYTCQAITEVNVYGSGTLVLVTEEQSQGWHRCSDAPPRASALPAPPTGSALPDPQTASALPDPPAASALPAALAVISFLLGLGLGVACVLARTQIKKLCSWRDKNSAACVVYEDMSHSRCNTLSSPNQYQ
notes: whole, on cells; Control transfectant; also called CD7-transfected COS cells
B3: B7 antigen (B7-1, CD80) expressed on cells (ligand, human, UniProt P33681 35-288, looked up)
chain: VIHVTKEVKEVATLSCGHNVSVEELAQTRIYWQKEKKMVLTMMSGDMNIWPEYKNRTIFDITNNLSIVILALRPSDEGTYECVVLKYEKDAFKREHLAEVTLSVKADFPTPSISDFEIPTSNIRRIICSTSGGFPEPHLSWLENGEELNAINTTVSQDPETELYAVSSKLDFNMTTNHSFMCLIKYGHLRVNQTFNWNTTKQEHFPDNLLPSWAITLISVNGIFVICCLTYCFAPRCRERRRNERLRRESVRPV
notes: whole, on cells; Stably transfected CHO cells; in the MLR and IgM assays the B7 antigen of the stimulating B cells; also called B7^+ CHO cells; B7-1 positive CHO cells
B4: CTLA4/CD28Ig hybrid fusion protein HS1 (Fc fusion, not shown: a dimerising Fc or GST)
chain: NKILVKQSPMLVAYDNAYNLSCKYASPGKATEVRVTVLRQADSQVTEVCAATYMMGNELTFLDDSICTGTSSGNQVNLTIQGLRAMDTGLYICKVEVMYPPPYLDNEKSNGTIIHVKGKHLCPS
notes: as for B1
B5: CTLA4/CD28Ig hybrid fusion protein HS4 (Fc fusion, not shown: a dimerising Fc or GST)
chain: NKILVKQSPMLVAYDNAYNLSCKYSYNLFSREFRASLHKGLDSAVEVCVVYGNYSQQLQVYSKTGFNCDGKLGNESVTFYLQNLYVNQTDIYFCKIELMYPPPYYLGIGNGTQIYVIDPEPCPDSD
notes: as for B1
B6: CTLA4/CD28Ig hybrid fusion protein HS2 (Fc fusion, not shown: a dimerising Fc or GST)
chain: MHVAQPAVVLASSRGIASFVCKYSYNLFSREFRASLHKGLDSAVEVCVVYGNYSQQLQVYSKTGFNCDGKLGNESVTFYLQNLYVNQTDIYFCKIELMYPPPYYLGIGNGTQIYVIDPEPCPDSD
notes: as for B1
B7: CTLA4/CD28Ig hybrid fusion protein HS6 (Fc fusion, not shown: a dimerising Fc or GST)
chain: MHVAQPAVVLASSRGIASFVCEYSYNLFSREVRVTVLRQADSQVTEVCAATYMMGNELTFLDDSICTGTSSGNQVNLTIQGLRAMDTGLYICKVELMYPPPYYLGIGNGTQIYVIDPEPCPDSD
notes: as for B1
B8: CTLA4/CD28Ig hybrid fusion protein HS3 (Fc fusion, not shown: a dimerising Fc or GST)
chain: MHVAQPAVVLASSRGIASFVCEYASPGKATEVRVTVLRQADSQVTEVCAATYMMGNELTFLDDSICTGTSSGNQVNLTIQGLRAMDTGLYICKVEVMYPPPYLDNEKSNGTIIHVKGKHLCPS
notes: as for B1

The target in assay [1] is B3. The assay is described as follows: enzyme immunoassay on fixed B7-1+ CHO cells.
Assay [2] addresses B3. Nature of the assay: B7-1+ CHO cell enzyme immunoassay; binding activity relative to CTLA4Ig, from the concentrations giving the same A450.
Assay [3] concerns the target T1, CD5Ig (human, UniProt P06127 25-371; P01857 99-330 = IgG part).
T1 construct: range 1-347;domain: hinge, CH2 and CH3 regions; Control fusion protein; also called control CD5Ig fusion protein
Nature of the assay: indirect immunofluorescence, FACS, transfected COS cells, FITC anti-mouse and anti-human Ig second step.
Protocol: Immunostaining and FACS^R Analysis. Prior to staining, COS or CHO cells were removed from their culture vessels by incubation in PBS containing 10 mM EDTA. Cells were first incubated with mAbs or Ig fusion proteins at 10 micro grams/ml in DMEM containing 10% FBS for 1–2 hr at 4 degrees C. Cells were then washed, and incubated for an additional 0.5–2 hrs at 4 degrees C. with FITC-conjugated goat anti-mouse immunoglobulin or with FITC-conjugated goat anti-human IgCγ serum (both from Tago, Burlingame, Calif.). When binding of both mAbs and Ig fusion proteins were measured in the same experiment, FITC-conjugated anti-mouse and anti-human second step reagents were mixed together before use. Fluorescence on a total of 10,000 cells was then analyzed by FACS^R.
Cells were then washed and binding was detected by a mixture of FITC-conjugated goat anti-mouse Ig and FITC-conjugated goat anti-human Ig second step reagents. Transfected cells were tested for expression of the appropriate cell surface markers by indirect immunostaining and fluorescence was measured using FACS^R analysis as described above.

The target in assay [4] is T1, CD5Ig. The assay is described as follows: indirect immunofluorescence, FACS, FITC goat anti-human Ig second step.
Protocol: Prior to staining, COS or CHO cells were removed from their culture vessels by incubation in PBS containing 10 mM EDTA. Cells were first incubated with mAbs or Ig fusion proteins at 10 micro grams/ml in DMEM containing 10% FBS for 1–2 hr at 4 degrees C. Cells were then washed, and incubated for an additional 0.5–2 hrs at 4 degrees C. with FITC-conjugated goat anti-mouse immunoglobulin or with FITC-conjugated goat anti-human IgCγ serum (both from Tago, Burlingame, Calif.). When binding of both mAbs and Ig fusion proteins were measured in the same experiment, FITC-conjugated anti-mouse and anti-human second step reagents were mixed together before use. Fluorescence on a total of 10,000 cells was then analyzed by FACS^R.
Binding was detected by FACS^R following addition of FITC-conjugated goat anti-human Ig second step reagents. A total of 10,000 stained cells were analyzed by FACS^R.

T1 sequence (P06127 other isoform, or with tags, fused parts or gaps limits assumed): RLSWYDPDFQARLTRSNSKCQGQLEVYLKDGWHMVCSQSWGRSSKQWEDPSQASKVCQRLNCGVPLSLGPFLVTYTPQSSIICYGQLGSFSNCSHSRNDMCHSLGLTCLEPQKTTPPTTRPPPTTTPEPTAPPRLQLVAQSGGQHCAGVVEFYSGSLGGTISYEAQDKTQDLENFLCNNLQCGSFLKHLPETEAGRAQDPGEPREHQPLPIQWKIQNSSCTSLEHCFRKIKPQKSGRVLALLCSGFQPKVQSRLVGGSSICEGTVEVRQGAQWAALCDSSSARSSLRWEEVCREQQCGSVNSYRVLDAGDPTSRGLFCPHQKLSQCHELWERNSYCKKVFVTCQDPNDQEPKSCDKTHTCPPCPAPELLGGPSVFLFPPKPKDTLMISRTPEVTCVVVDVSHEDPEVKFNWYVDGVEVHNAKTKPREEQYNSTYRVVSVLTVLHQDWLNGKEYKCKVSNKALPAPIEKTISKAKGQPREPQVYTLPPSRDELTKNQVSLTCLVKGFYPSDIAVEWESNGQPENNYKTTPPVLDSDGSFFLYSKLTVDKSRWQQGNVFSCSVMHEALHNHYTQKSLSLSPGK

For B1, in assay [1], the “% of wild type binding” value is around 2%. Besides, the “% B7 binding activity” value in assay [2] was determined as 2%.

With B2, the binding result in assay [3] is listed as “no binding (tested: 10 µg/ml (from the text))”.

B3: in assay [4], the binding result is recorded as “no binding (tested: 10 µg/ml (from the text))”.

As for B4, in assay [2], the “% B7 binding activity” value was below 0.1%.

On to B5, for which, in assay [1], the “fold less binding than wild type CTLA4Ig” value is around 5 fold and the “increase in binding relative to CD28Ig” value was ~2.5 orders of magnitude. Further, in assay [2], the “% B7 binding activity” value came to 16%.

For the molecule B6, the “% B7 binding activity” value in assay [2] is 27%.

For the molecule B7, in assay [2], the “% B7 binding activity” value was 20%.

Regarding B8, the “% B7 binding activity” value in assay [2] is below 0.1%.
